Tests used:
[1] = biological target: fluorescein; assay: Kd (Tite-Seq); settings: format: scFv 4-4-20, heavy + light
[2] = yeast surface expression (ratio to wild type); higher = more expressed; settings: format: scFv 4-4-20, heavy + light

Kd [1]: ≥ 10 µM
B1: unnamed (protein)
chain 1: EVKLDETGGGLVQPGRPMKLSCVASGFEPQSPSPQNKRQSPEKGLEWVAQIRNKPYNYETYYSDSVKGRFTISRDDSKSSVYLQMNNLRVEDMGIYYCTAHETLLCCLWQGTSVTVS
chain 2: DVVMTQTPLSLPVSLGDQASISCRSSQSLVHSNGNTYLRWYLQKPGQSPKVLIYKVSNRFSGVPDRFSGSGSGTDFTLKISRVEAEDLGVYFCSQSTHVPWTFGGGTKLEIK
yeast surface expression [2]: 0.444
